Target: His6-tagged rat SLFN13 N′-domain, residues 14–353 (crystallised rSLFN13_(14–353)) (rat) (UniProt Q5U311)
Assay: right-angle light scattering (RALS) of eluted protein; purified protein in solution; elution with RALS detection; conditions not shown (Supplementary Fig. 2a)

stoichiometry N: 2
Substance: His6-tagged rat SLFN13 N′-domain, residues 14–353 (crystallised rSLFN13_(14–353)) (from UniProt Q5U311 14-353) (domain or fragment)
